Numbered stars: 1 amine (or outer) side, 2 acyl side, 3 side chain; on linkers, the order of the positions; unused ones are H or OH. Square brackets hold non-standard residues; d marks the D form. Side chains are listed from the residue outwards. Ends that are not written are not given here. * marks the point of attachment. Phe(4-CH2NH2) = NCc1ccc(C[C@H](N)C(=O)O)cc1; C18 diacid = O=C(O)CCCCCCCCCCCCCCCCC(=O)*; γGlu = O=C(O)[C@H](CCC(=O)[*:2])N[*:1]; Met(O2) = CS(=O)(=O)CC[C@H](N)C(=O)O; αMeD = C[C@](N)(CC(=O)O)C(=O)O; AEEA = NCCOCCOCC(=O)O; Aib = CC(C)(N)C(=O)O
B1: TP598 (peptide)
peptide: H[Aib]QGTFTSDYSKYLDAKAAK([AEEA-AEEA-γGlu-C18 diacid])DFVQWL[Met(O2)]DT-NH2
modifications: N-terminus assumed
SMILES: CC(C)C[C@H](NC(=O)[C@H](Cc1ccc(O)cc1)NC(=O)[C@H](CCCCN)NC(=O)[C@H](CO)NC(=O)[C@H](Cc1ccc(O)cc1)NC(=O)[C@H](CC(=O)O)NC(=O)[C@H](CO)NC(=O)[C@@H](NC(=O)[C@H](Cc1ccccc1)NC(=O)[C@@H](NC(=O)CNC(=O)[C@H](CCC(N)=O)NC(=O)C(C)(C)NC(=O)[C@@H](N)Cc1c[nH]cn1)[C@@H](C)O)[C@@H](C)O)C(=O)N[C@@H](CC(=O)O)C(=O)N[C@@H](C)C(=O)N[C@@H](CCCCN)C(=O)N[C@@H](C)C(=O)N[C@@H](C)C(=O)N[C@@H](CCCCNC(=O)COCCOCCNC(=O)COCCOCCNC(=O)CC[C@H](NC(=O)CCCCCCCCCCCCCCCCC(=O)O)C(=O)O)C(=O)N[C@@H](CC(=O)O)C(=O)N[C@@H](Cc1ccccc1)C(=O)N[C@H](C(=O)N[C@@H](CCC(N)=O)C(=O)N[C@@H](Cc1c[nH]c2ccccc12)C(=O)N[C@@H](CC(C)C)C(=O)N[C@@H](CCS(C)(=O)=O)C(=O)N[C@@H](CC(=O)O)C(=O)N[C@H](C(N)=O)[C@@H](C)O)C(C)C
B2: TP575 (peptide)
peptide: H[Aib]QGTFTSDYSKYLD[Aib]RAAQDFVK([AEEA-AEEA-γGlu-C18 diacid])WL[Met(O2)]DT-NH2
modifications: N-terminus assumed
SMILES: CC(C)C[C@H](NC(=O)[C@H](Cc1c[nH]c2ccccc12)NC(=O)[C@H](CCCCNC(=O)COCCOCCNC(=O)COCCOCCNC(=O)CC[C@H](NC(=O)CCCCCCCCCCCCCCCCC(=O)O)C(=O)O)NC(=O)[C@@H](NC(=O)[C@H](Cc1ccccc1)NC(=O)[C@H](CC(=O)O)NC(=O)[C@H](CCC(N)=O)NC(=O)[C@H](C)NC(=O)[C@H](C)NC(=O)[C@H](CCCNC(=N)N)NC(=O)C(C)(C)NC(=O)[C@H](CC(=O)O)NC(=O)[C@H](CC(C)C)NC(=O)[C@H](Cc1ccc(O)cc1)NC(=O)[C@H](CCCCN)NC(=O)[C@H](CO)NC(=O)[C@H](Cc1ccc(O)cc1)NC(=O)[C@H](CC(=O)O)NC(=O)[C@H](CO)NC(=O)[C@@H](NC(=O)[C@H](Cc1ccccc1)NC(=O)[C@@H](NC(=O)CNC(=O)[C@H](CCC(N)=O)NC(=O)C(C)(C)NC(=O)[C@@H](N)Cc1c[nH]cn1)[C@@H](C)O)[C@@H](C)O)C(C)C)C(=O)N[C@@H](CCS(C)(=O)=O)C(=O)N[C@@H](CC(=O)O)C(=O)N[C@H](C(N)=O)[C@@H](C)O
B3: TP597 (peptide)
peptide: H[Aib]QGTFTSDYSKLLDARAAK([AEEA-AEEA-γGlu-C18 diacid])DFVQWL[Met(O2)]DT-NH2
modifications: N-terminus assumed
SMILES: CC(C)C[C@H](NC(=O)[C@H](CC(C)C)NC(=O)[C@H](CCCCN)NC(=O)[C@H](CO)NC(=O)[C@H](Cc1ccc(O)cc1)NC(=O)[C@H](CC(=O)O)NC(=O)[C@H](CO)NC(=O)[C@@H](NC(=O)[C@H](Cc1ccccc1)NC(=O)[C@@H](NC(=O)CNC(=O)[C@H](CCC(N)=O)NC(=O)C(C)(C)NC(=O)[C@@H](N)Cc1c[nH]cn1)[C@@H](C)O)[C@@H](C)O)C(=O)N[C@@H](CC(=O)O)C(=O)N[C@@H](C)C(=O)N[C@@H](CCCNC(=N)N)C(=O)N[C@@H](C)C(=O)N[C@@H](C)C(=O)N[C@@H](CCCCNC(=O)COCCOCCNC(=O)COCCOCCNC(=O)CC[C@H](NC(=O)CCCCCCCCCCCCCCCCC(=O)O)C(=O)O)C(=O)N[C@@H](CC(=O)O)C(=O)N[C@@H](Cc1ccccc1)C(=O)N[C@H](C(=O)N[C@@H](CCC(N)=O)C(=O)N[C@@H](Cc1c[nH]c2ccccc12)C(=O)N[C@@H](CC(C)C)C(=O)N[C@@H](CCS(C)(=O)=O)C(=O)N[C@@H](CC(=O)O)C(=O)N[C@H](C(N)=O)[C@@H](C)O)C(C)C
B4: TP609 (peptide)
peptide: H[Aib]QGTFTSDYSKYLDARAAQ[Phe(4-CH2NH2)]([AEEA-AEEA-γGlu-C18 diacid])FVQWLL[αMeD]T-NH2
modifications: N-terminus assumed
SMILES: CC(C)C[C@H](NC(=O)[C@H](Cc1ccc(O)cc1)NC(=O)[C@H](CCCCN)NC(=O)[C@H](CO)NC(=O)[C@H](Cc1ccc(O)cc1)NC(=O)[C@H](CC(=O)O)NC(=O)[C@H](CO)NC(=O)[C@@H](NC(=O)[C@H](Cc1ccccc1)NC(=O)[C@@H](NC(=O)CNC(=O)[C@H](CCC(N)=O)NC(=O)C(C)(C)NC(=O)[C@@H](N)Cc1c[nH]cn1)[C@@H](C)O)[C@@H](C)O)C(=O)N[C@@H](CC(=O)O)C(=O)N[C@@H](C)C(=O)N[C@@H](CCCNC(=N)N)C(=O)N[C@@H](C)C(=O)N[C@@H](C)C(=O)N[C@@H](CCC(N)=O)C(=O)N[C@@H](Cc1ccc(CNC(=O)COCCOCCNC(=O)COCCOCCNC(=O)CC[C@H](NC(=O)CCCCCCCCCCCCCCCCC(=O)O)C(=O)O)cc1)C(=O)N[C@@H](Cc1ccccc1)C(=O)N[C@H](C(=O)N[C@@H](CCC(N)=O)C(=O)N[C@@H](Cc1c[nH]c2ccccc12)C(=O)N[C@@H](CC(C)C)C(=O)N[C@@H](CC(C)C)C(=O)N[C@@](C)(CC(=O)O)C(=O)N[C@H](C(N)=O)[C@@H](C)O)C(C)C
B5: TP604 (peptide)
peptide: H[Aib]QGTFTSDYSKYLDARAAQDFVQWL[Met(O2)][Phe(4-CH2NH2)]([AEEA-AEEA-γGlu-C18 diacid])T-NH2
modifications: N-terminus assumed
SMILES: CC(C)C[C@H](NC(=O)[C@H](Cc1ccc(O)cc1)NC(=O)[C@H](CCCCN)NC(=O)[C@H](CO)NC(=O)[C@H](Cc1ccc(O)cc1)NC(=O)[C@H](CC(=O)O)NC(=O)[C@H](CO)NC(=O)[C@@H](NC(=O)[C@H](Cc1ccccc1)NC(=O)[C@@H](NC(=O)CNC(=O)[C@H](CCC(N)=O)NC(=O)C(C)(C)NC(=O)[C@@H](N)Cc1c[nH]cn1)[C@@H](C)O)[C@@H](C)O)C(=O)N[C@@H](CC(=O)O)C(=O)N[C@@H](C)C(=O)N[C@@H](CCCNC(=N)N)C(=O)N[C@@H](C)C(=O)N[C@@H](C)C(=O)N[C@@H](CCC(N)=O)C(=O)N[C@@H](CC(=O)O)C(=O)N[C@@H](Cc1ccccc1)C(=O)N[C@H](C(=O)N[C@@H](CCC(N)=O)C(=O)N[C@@H](Cc1c[nH]c2ccccc12)C(=O)N[C@@H](CC(C)C)C(=O)N[C@@H](CCS(C)(=O)=O)C(=O)N[C@@H](Cc1ccc(CNC(=O)COCCOCCNC(=O)COCCOCCNC(=O)CC[C@H](NC(=O)CCCCCCCCCCCCCCCCC(=O)O)C(=O)O)cc1)C(=O)N[C@H](C(N)=O)[C@@H](C)O)C(C)C
B6: TP608 (peptide)
peptide: HXQGTFTSDYSKYLDARAAQXFVQWLXXT
modifications: Aib (U) at 2; K(PEG5-γEC18-OH) at 21; L-methionine sulphone (2) at 27; αMD (printed aMD) at 28; C-terminal amide
B7: TP628 (peptide)
peptide: H[Aib]QGTFTSDYSKYLDARAAK([AEEA-γGlu-C18 diacid])DFVQWL[Met(O2)][αMeD]T-NH2
modifications: N-terminus assumed
SMILES: CC(C)C[C@H](NC(=O)[C@H](Cc1ccc(O)cc1)NC(=O)[C@H](CCCCN)NC(=O)[C@H](CO)NC(=O)[C@H](Cc1ccc(O)cc1)NC(=O)[C@H](CC(=O)O)NC(=O)[C@H](CO)NC(=O)[C@@H](NC(=O)[C@H](Cc1ccccc1)NC(=O)[C@@H](NC(=O)CNC(=O)[C@H](CCC(N)=O)NC(=O)C(C)(C)NC(=O)[C@@H](N)Cc1c[nH]cn1)[C@@H](C)O)[C@@H](C)O)C(=O)N[C@@H](CC(=O)O)C(=O)N[C@@H](C)C(=O)N[C@@H](CCCNC(=N)N)C(=O)N[C@@H](C)C(=O)N[C@@H](C)C(=O)N[C@@H](CCCCNC(=O)COCCOCCNC(=O)CC[C@H](NC(=O)CCCCCCCCCCCCCCCCC(=O)O)C(=O)O)C(=O)N[C@@H](CC(=O)O)C(=O)N[C@@H](Cc1ccccc1)C(=O)N[C@H](C(=O)N[C@@H](CCC(N)=O)C(=O)N[C@@H](Cc1c[nH]c2ccccc12)C(=O)N[C@@H](CC(C)C)C(=O)N[C@@H](CCS(C)(=O)=O)C(=O)N[C@@](C)(CC(=O)O)C(=O)N[C@H](C(N)=O)[C@@H](C)O)C(C)C
B8: TP443 (peptide)
peptide: H[Aib]QGTFTSDYSKYLDARAAQ[Phe(4-CH2NH2)]([AEEA-AEEA-γGlu-C18 diacid])FVQWLLDT-NH2
modifications: N-terminus assumed
SMILES: CC(C)C[C@H](NC(=O)[C@H](Cc1ccc(O)cc1)NC(=O)[C@H](CCCCN)NC(=O)[C@H](CO)NC(=O)[C@H](Cc1ccc(O)cc1)NC(=O)[C@H](CC(=O)O)NC(=O)[C@H](CO)NC(=O)[C@@H](NC(=O)[C@H](Cc1ccccc1)NC(=O)[C@@H](NC(=O)CNC(=O)[C@H](CCC(N)=O)NC(=O)C(C)(C)NC(=O)[C@@H](N)Cc1c[nH]cn1)[C@@H](C)O)[C@@H](C)O)C(=O)N[C@@H](CC(=O)O)C(=O)N[C@@H](C)C(=O)N[C@@H](CCCNC(=N)N)C(=O)N[C@@H](C)C(=O)N[C@@H](C)C(=O)N[C@@H](CCC(N)=O)C(=O)N[C@@H](Cc1ccc(CNC(=O)COCCOCCNC(=O)COCCOCCNC(=O)CC[C@H](NC(=O)CCCCCCCCCCCCCCCCC(=O)O)C(=O)O)cc1)C(=O)N[C@@H](Cc1ccccc1)C(=O)N[C@H](C(=O)N[C@@H](CCC(N)=O)C(=O)N[C@@H](Cc1c[nH]c2ccccc12)C(=O)N[C@@H](CC(C)C)C(=O)N[C@@H](CC(C)C)C(=O)N[C@@H](CC(=O)O)C(=O)N[C@H](C(N)=O)[C@@H](C)O)C(C)C

Columns and labels:
[1] = biological target: human Glucagon receptor (GCGR) (human, UniProt P47871 26-477); experiment: cell-based or functional assay
human Glucagon receptor (GCGR), sequence (P47871 26-477): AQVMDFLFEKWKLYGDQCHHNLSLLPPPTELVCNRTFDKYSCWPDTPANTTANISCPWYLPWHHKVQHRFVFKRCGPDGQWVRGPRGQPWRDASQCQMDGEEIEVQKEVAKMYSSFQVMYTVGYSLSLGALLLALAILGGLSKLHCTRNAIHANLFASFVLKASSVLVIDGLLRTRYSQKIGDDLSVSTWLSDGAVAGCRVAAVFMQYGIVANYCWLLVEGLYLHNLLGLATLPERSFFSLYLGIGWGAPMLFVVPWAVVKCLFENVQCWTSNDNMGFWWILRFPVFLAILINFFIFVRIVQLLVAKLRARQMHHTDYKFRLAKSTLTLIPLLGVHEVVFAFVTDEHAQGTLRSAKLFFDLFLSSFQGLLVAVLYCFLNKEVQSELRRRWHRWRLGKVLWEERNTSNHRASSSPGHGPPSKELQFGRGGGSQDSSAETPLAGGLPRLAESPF

[2] = biological target: human GLP-1 receptor (GLP1R) (human, UniProt P43220 24-463); experiment: cell-based or functional assay

| Binder | GCGR EC50 human [1] [pM] | GLP1R EC50 human [2] [pM] |
| --- | --- | --- |
| B1 | 1140 | 500 |
| B2 | 595 | 866 |
| B3 | 740 | 610 |
| B4 | 360 | 420 |
| B5 | 1090 | 470 |
| B6 | 210 | 230 |
| B7 | 860 | 1390 |
| B8 | 180 | 100 |

Source: patent publication US20200270325A1 (Merck Sharp & Dohme, published 2020)
